# Literature values, collected in paper PMC7689933.
# Biological target: His15 (UniProt position 33, AAMKRHGLDNY)
# Experiment: NMR
# Details: not stated (presumably native, ligand-free lysozyme)
substance,measurement,value
Lysozyme C (hen egg white lysozyme) (Gallus gallus),pKa,5.35 ± 0.07
